Experimental data as given in patent US20230220047A1 (NORWEGIAN UNIVERSITY OF SCIENCE AND TECHNOLOGY NTNU, published 2023).
Ends that are not written are not given here.

Columns and labels:
[1] = molecular target: T1, IRAK2 (endogenous, human) (human, UniProt O43187 1-625); test: endogenous co-precipitation with anti-SLAMF1 mAb (E-11) on magnetic beads from primary human macrophages, Western blot
T1 sequence (looked up): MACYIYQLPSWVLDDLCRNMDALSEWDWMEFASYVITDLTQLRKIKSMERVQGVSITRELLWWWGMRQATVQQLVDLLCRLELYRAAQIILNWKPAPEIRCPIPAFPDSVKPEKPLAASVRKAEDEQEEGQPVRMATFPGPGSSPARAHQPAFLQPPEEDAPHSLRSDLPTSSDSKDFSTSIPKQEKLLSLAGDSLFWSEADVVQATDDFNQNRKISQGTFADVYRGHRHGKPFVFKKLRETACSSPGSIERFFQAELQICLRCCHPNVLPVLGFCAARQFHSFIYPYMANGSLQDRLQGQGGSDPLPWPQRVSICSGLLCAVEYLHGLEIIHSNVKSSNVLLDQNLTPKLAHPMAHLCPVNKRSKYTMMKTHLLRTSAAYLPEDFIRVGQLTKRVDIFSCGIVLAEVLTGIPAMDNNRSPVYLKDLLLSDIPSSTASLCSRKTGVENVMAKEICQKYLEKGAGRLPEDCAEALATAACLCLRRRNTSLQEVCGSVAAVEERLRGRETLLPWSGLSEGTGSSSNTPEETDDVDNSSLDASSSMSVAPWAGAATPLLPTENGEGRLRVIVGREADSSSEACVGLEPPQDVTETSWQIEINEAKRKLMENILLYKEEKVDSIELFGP
Protocol: The SLAMF1 and TRAM interaction was used as a positive control. Primary human macrophages were pre-treated with 15 μM peptides for 30 min, stimulated with LPS for another 15′, 30′ or 1 h, lysed and used for co-precipitation with anti-SLAMF1 mouse mAbs (E-11) covalently bound to magnetic beads, followed by Western blot analysis. Proteins in lysates were analysed as input control.
Indeed, a potential P7-Pen interaction motif is located within the protein kinase domain of IRAK4. Alignment of IRAKs with the TRAM-derived sequence that is targeted by the peptide identified sequences in IRAK1 and IRAK4 that are highly similar to the P7-interacting motif in TRAM/TICAM2 (not shown). […] IRAK4 also co-precipitated with GST-SLAMF1ct in GST pull down assays from lysates of primary human macrophages (data not shown).

[2] = molecular target: T2, IRAK4 (endogenous, human) (human, UniProt Q9NWZ3 1-460); test: biotinylated peptide on NeutrAvidin beads, lysates of primary human macrophages, Western blot; may be indirect, within a complex
T2 construct: also called interleukin 1 receptor-associated kinase 4
T2 sequence (looked up): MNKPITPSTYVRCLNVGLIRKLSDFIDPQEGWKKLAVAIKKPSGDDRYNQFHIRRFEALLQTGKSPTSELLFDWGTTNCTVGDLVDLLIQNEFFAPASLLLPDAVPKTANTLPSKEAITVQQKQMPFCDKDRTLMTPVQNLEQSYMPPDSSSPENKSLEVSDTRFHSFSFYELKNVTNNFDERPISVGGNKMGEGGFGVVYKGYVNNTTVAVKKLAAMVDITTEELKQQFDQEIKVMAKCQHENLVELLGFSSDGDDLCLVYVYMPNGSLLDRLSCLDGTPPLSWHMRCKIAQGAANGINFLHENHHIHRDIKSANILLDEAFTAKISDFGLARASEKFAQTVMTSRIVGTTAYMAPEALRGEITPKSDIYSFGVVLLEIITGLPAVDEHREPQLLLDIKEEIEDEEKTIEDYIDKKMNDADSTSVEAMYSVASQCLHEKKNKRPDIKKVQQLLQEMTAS
Protocol: (§1) Precipitations were performed using biotinylated peptides on lysates of primary human macrophages stimulated with LPS (100 ng/ml) for 15, 30 or 60 min and unstimulated cells (A), and stimulated with LPS for 30 or 60 min, or CL075/TLR8 ligand for 15 or 30 min (B).
(§2) Immunoprecipitations with the biotinylated peptides Penetratin-biotin and Pep7-Penetratin-biotin (synthesised by custom order by GenScript) were performed by coating NeutrAvidin® Agarose Resin (Thermo Scientific) with peptide by incubating 40 μl 50% agarose slurry with 10 μl 2 mM peptides in 300 μl lysis buffer (for one precipitation reaction) (300 mM NaCl, 50 mM TrisHCl (pH 8.0), 1 mM EDTA, 1% Triton X100). Beads were washed 3 times with lysis buffer to remove unbound peptides before applying cellular extracts. Cell lysis was performed in the same lysis buffer, both for HEK293T cells and primary human macrophages. Precipitations were carried out by rotation at 4° C. for 30′-1 h, followed by four washes with lysis buffer. Agarose resin with precipitated protein complexes was heated in loading buffer 1×NuPAGE® LDS Sample Buffer (Thermo Fisher Scientific) containing 20 mM DTT and analysed by Western blotting.
(§3) To look for interactions between P7 and proteins in the Myddosome complex, biotinylated P7 peptides were pre-incubated with lysates of primary human macrophages (unstimulated and stimulated by LPS or CL075) and NeutrAvidin beads, followed by Western blot analysis of precipitates (FIG. 26). […] Upon stimulation with LPS, the complex of P7-interacting proteins attracted TRAF6 and TAK1 (FIG. 26A).

[3] = molecular target: T3, IRAK1 (endogenous, human) (human, UniProt P51617 1-712, limits assumed); test: as above
T3 construct: SLAMF1 co-precipitated the ubiquitinated/phosphorylated form after LPS stimulation; also called interleukin 1 receptor-associated kinase 1; modified IRAK1
T3 sequence (P51617 whole entry): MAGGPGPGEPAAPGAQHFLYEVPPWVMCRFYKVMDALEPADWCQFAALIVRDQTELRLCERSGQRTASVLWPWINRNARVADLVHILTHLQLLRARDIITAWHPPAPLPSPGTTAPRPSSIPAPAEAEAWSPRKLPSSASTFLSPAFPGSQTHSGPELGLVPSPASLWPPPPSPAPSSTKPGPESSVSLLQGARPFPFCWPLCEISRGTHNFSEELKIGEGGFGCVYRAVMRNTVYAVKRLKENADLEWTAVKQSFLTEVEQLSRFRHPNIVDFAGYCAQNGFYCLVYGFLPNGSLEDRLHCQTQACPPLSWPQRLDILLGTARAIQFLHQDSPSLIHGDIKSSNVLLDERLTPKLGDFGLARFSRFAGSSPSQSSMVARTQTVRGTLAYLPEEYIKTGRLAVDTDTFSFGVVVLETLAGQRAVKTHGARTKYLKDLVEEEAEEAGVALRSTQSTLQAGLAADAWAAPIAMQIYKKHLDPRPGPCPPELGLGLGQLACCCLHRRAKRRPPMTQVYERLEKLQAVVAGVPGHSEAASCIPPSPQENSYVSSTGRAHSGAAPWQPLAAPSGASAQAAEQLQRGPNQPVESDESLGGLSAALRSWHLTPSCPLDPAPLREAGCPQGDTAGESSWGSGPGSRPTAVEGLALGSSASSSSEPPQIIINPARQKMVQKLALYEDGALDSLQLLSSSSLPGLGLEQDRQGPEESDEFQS
Protocol: as §1, §2, §3

Mal (endogenous, human) = molecular target: T4, Mal (endogenous, human) (human, UniProt P58753 1-221, limits assumed); test: as above
T4 construct: also called Mal/TIRAP; MyD88-adaptor-like protein
T4 sequence (P58753 whole entry): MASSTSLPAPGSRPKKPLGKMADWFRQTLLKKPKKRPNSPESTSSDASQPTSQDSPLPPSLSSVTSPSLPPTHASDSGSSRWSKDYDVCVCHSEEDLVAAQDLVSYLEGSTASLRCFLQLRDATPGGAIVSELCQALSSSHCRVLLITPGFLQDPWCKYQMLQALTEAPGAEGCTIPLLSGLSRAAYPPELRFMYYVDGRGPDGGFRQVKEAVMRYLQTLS
Protocol: as §1, §2, §3

[4] = molecular target: T5, MyD88 (endogenous, human) (human, UniProt Q99836 1-296); test: as above
T5 construct: also called Myeloid Differentiation primary response protein 88
T5 sequence (Q99836 whole entry): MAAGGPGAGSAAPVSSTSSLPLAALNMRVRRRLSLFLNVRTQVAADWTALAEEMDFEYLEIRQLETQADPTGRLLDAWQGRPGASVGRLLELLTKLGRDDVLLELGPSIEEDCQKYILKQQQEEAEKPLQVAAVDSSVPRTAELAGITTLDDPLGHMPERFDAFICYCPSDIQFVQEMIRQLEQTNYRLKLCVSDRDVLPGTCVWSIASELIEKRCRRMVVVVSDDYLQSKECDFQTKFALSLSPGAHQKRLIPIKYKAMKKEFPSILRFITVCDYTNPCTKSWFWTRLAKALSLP
Protocol: as §1, §2, §3

[5] = molecular target: murine TRAM protein (overexpressed in HEK 293T cells) (murine, UniProt Q8BJQ4 2-232, limits assumed); test: C-terminally biotinylated peptide on Neutravidin agarose, lysates of HEK 293T cells overexpressing TRAM
Chain of murine TRAM protein (overexpressed in HEK 293T cells) (Q8BJQ4 2-232 limits assumed): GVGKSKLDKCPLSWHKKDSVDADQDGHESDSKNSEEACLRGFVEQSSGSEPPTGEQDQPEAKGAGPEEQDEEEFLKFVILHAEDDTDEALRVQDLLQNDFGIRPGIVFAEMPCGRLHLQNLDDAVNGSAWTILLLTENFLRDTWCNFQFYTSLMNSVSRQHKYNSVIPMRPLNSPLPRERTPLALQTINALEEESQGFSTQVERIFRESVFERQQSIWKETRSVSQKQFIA
Protocol: as §2
(§4) Murine disease models are the most accessible and widely used pre-clinical model for testing new drugs. […] To test the potential interaction of the P7 peptide with murine TRAM vs. human TRAM protein, we performed precipitations of C-terminally biotinylated Pen or P7-Pen peptides.

[6] = molecular target: T6, human TRAM (endogenous in primary human macrophages, or overexpressed in HEK 293T cells) (human, UniProt Q86XR7 2-235, limits assumed); test: as above
T6 construct: also called TICAM2
T6 sequence (Q86XR7 2-235 limits assumed): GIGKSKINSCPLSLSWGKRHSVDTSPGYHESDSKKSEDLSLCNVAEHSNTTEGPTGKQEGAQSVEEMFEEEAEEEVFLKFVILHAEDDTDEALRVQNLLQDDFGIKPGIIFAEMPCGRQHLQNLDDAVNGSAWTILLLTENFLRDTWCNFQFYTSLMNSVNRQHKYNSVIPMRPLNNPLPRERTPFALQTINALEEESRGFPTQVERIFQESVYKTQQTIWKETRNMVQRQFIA
Protocol: as §2, §4

[7] = molecular target: T7, TRAF6 (endogenous, human) (human, UniProt Q9Y4K3 1-522); test: biotinylated peptide on NeutrAvidin beads, lysates of LPS-stimulated primary human macrophages, Western blot; within a complex
T7 sequence (looked up): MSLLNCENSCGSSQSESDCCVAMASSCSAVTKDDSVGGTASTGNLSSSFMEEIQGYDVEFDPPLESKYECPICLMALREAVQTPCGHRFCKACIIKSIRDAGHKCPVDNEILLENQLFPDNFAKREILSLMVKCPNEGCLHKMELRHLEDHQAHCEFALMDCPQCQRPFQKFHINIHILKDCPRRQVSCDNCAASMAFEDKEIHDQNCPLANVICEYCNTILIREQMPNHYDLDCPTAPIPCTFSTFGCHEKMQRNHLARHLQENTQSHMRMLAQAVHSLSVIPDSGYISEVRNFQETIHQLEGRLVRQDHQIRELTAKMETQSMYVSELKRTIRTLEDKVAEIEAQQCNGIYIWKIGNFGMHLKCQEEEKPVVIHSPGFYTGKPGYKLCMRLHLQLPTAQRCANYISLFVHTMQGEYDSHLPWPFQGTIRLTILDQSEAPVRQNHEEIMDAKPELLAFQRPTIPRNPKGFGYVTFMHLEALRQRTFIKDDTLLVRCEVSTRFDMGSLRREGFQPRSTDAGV
Protocol: as §1
as §2, with “blotting. […]” for “blotting.”

B1: SLAMF1 (human, no tag stated; overexpressed in HEK293T cells or endogenous in primary human macrophages) (receptor, UniProt Q13291 21-335, looked up)
chain: ASYGTGGRMMNCPKILRQLGSKVLLPLTYERINKSMNKSIHIVVTMAKSLENSVENKIVSLDPSEAGPPRYLGDRYKFYLENLTLGIRESRKEDEGWYLMTLEKNVSVQRFCLQLRLYEQVSTPEIKVLNKTQENGTCTLILGCTVEKGDHVAYSWSEKAGTHPLNPANSSHLLSLTLGPQHADNIYICTVSNPISNNSQTFSPWPGCRTDPSETKPWAVYAGLLGGVIMILIMVVILQLRRRGKTNHYQTTVEKKSLTIYAQVQKPGPLQKKLDSFPAQDPCTTIYVAATEPVPESVQETNSITVYASVTLPES
notes: Used for SLAMF1 in the TRAM^Flag and Mal^Flag co-precipitations (no tag stated there) and for endogenous SLAMF1 precipitated with anti-SLAMF1 mAb E-11; also called SLAMF1 wt; SLAMF1 protein
**Q.** Does B1 bind [1]?
**A.** no binding

B2: Pep7-Penetratin-biotin (C-terminally biotinylated P7-Pen) (peptide)
peptide: ITVYASVTLTGRQIKIWFQNRRMKWKK-biotin
modifications: not fully specified (N-terminus); also: biotin attachment not given here
notes: Custom synthesis by GenScript; immobilised on NeutrAvidin agarose; also called P7-Pen peptide; biotinylated P7 peptides
**Q.** What does the source list for B2?
**A.** binding result [2]: binds; binding result [3]: binds; binding result (Mal (endogenous, human)): binds; binding result [4]: binds; binding result [5]: binds; binding result [6]: binds; binding result [7]: binds
